For one assay, the target named is hT40 (Homo sapiens, UniProt P10636). The assay can be described thus: Biacore X100 SPR binding kinetics of anti-tau scAbs (scAb captured via HuCk), analyte hT40. The settings on record: lead scAbs, Table 23. As for the experimental part:
Surface plasmon resonance (SPR) is widely regarded as the gold standard for real time measurement of protein-protein interactions such as antibody binding. All SPR experiments were carried out using a Biacore X100 machine and HBS EP+ running buffer (GE Healthcare). A ‘capture’ method was followed for affinity measurements, where an anti-human constant kappa chain (HuCk) antibody was conjugated to the surface of a CM5 sensor chip using an amine coupling kit and scAb molecules were immobilised via their HuCk domain. Amine coupling is a very common approach for immobilising the ligand to the chip surface. […] The capture antibody was diluted 1/100 in 10 mM Sodium acetate buffer pH 5.0 and passed over the activated chip surface for a period of at least 420 s. Final ligand immobilisation levels over 12,000 RU were deemed to be satisfactory.
Following immobilisation, the level of each scAb to be captured was identified using the standard SPR equation with a theoretical RMax of 100 RU. Analyte MW refers to the molecular weight of hT40 or dGA/dGAE molecules, while ligand MW refers to the molecular weight of the scAbs tested. […]
(§1) The single cycle kinetics protocol was similar and utilised the same level of scAb capture. […] Binding responses were analysed in Biacore X100 evaluation software and data fitted to a 1:1 binding model to obtain kinetic and affinity characterisation.

Another assay addresses dGAE (Homo sapiens, UniProt P10636). The assay can be described thus: Biacore X100 SPR binding kinetics of anti-tau scAbs (scAb captured via HuCk), analyte dGAE. The settings on record: lead scAbs. As for the experimental part:
Surface plasmon resonance (SPR) is widely regarded as the gold standard for real time measurement of protein-protein interactions such as antibody binding. All SPR experiments were carried out using a Biacore X100 machine and HBS EP+ running buffer (GE Healthcare). A ‘capture’ method was followed for affinity measurements, where an anti-human constant kappa chain (HuCk) antibody was conjugated to the surface of a CM5 sensor chip using an amine coupling kit and scAb molecules were immobilised via their HuCk domain. Amine coupling is a very common approach for immobilising the ligand to the chip surface. The chip surface has a dextran matrix derivatised with carboxyl groups, which after activation with N-hydroxysuccinimide (NHS) and 1-ethyl-3-(3-dimethylaminopropyl) carbodiimide (EDC), form reactive succinimide esters which allows the covalent capturing of the ligand via any available primary amine groups (e.g. Lysine) on the ligand (in this case anti-HuCk antibody). The capture antibody was diluted 1/100 in 10 mM Sodium acetate buffer pH 5.0 and passed over the activated chip surface for a period of at least 420 s. Final ligand immobilisation levels over 12,000 RU were deemed to be satisfactory.
Following immobilisation, the level of each scAb to be captured was identified using the standard SPR equation with a theoretical RMax of 100 RU. Analyte MW refers to the molecular weight of hT40 or dGA/dGAE molecules, while ligand MW refers to the molecular weight of the scAbs tested. RLis the desired capture level and S refers to the stoichiometric ratio:
The scAb to be tested was added only to flow cell 2 so that flow cell 1 could act as a control to subtract any interaction with the analyte and the chip surface. Both single and multi-cycle runs were utilised using wizards developed in the Biacore X100 control software which are both accepted methods of kinetic analysis (Karlsson, R., et al. Analyzing a kinetic titration series using affinity biosensors (2006) Analytical Biochemistry 349:136-47). The multi-cycle protocol was as follows-Three start-up cycles composed of an initial capture, to the desired level, of the scAb to be tested was performed followed by a 30 s injection of glycine buffer pH 2.0 after each cycle to regenerate the chip surface. The regeneration step removed any captured scAb whilst leaving the capture antibody intact and able to repeat the capture for the next cycle. […]
as §1
(SPR reads the build-up and loss of mass on a sensor chip optically.)

From patent US20250147051A1, “METHOD FOR DETECTING A TAU PROTEIN IN A SALIVA SAMPLE” (GTINVENT LIMITED, priority 2022, published 2025) come the findings set out here.

Sequence of dGAE (P10636 614-708): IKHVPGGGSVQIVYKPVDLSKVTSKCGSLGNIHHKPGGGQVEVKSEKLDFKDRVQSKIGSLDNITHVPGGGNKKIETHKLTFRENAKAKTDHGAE
Sequence of hT40 (P10636 1-441 isoform P10636-8): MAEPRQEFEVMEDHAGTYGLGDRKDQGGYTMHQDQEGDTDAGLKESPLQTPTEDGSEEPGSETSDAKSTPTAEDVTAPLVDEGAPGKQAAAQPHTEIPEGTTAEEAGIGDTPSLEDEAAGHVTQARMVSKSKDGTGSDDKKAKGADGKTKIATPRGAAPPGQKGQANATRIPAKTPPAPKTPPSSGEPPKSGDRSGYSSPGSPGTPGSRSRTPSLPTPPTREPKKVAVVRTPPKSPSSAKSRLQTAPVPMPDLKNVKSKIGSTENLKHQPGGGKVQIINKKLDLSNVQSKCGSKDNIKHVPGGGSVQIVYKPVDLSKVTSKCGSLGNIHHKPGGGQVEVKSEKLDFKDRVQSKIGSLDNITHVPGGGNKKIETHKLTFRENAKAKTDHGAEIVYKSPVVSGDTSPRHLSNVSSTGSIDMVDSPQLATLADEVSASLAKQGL

B1: E2E8: anti-tau clone, SEQ ID NO: 248 (protein)
scFv: QVQLQESGPSLVKPSQTLSLTCTVSGFSLTDRGVAWVRQAPGKALEWVGTMRSGGTIDYNPALKSRLSITRDTSKSQVFLSLSSVTTEDMAMYYCARGYLSGDRYAWGRGLLVTVSSEGKSSGASGESKVDDQAVLTQPSSVSKSLGQSVSIACSGSRSDIGYGNYVSWFQQIPGSAPKLLIYDTNTRASGVPDRFSGARSGNTATLTINSLQAEDEADYYCANIDSSRSHLFGSGTRLTVLG
modifications: E2E8 amino acid sequence
As to B1, the “T441 binding (result in words)” value with hT40 is recorded as “No T441 binding”. In the assay with dGAE (Table 24), this molecule yielded a ka of 477000 M⁻¹ s⁻¹. In the assay with dGAE (Table 24, dissociation rate), the “dissociation rate constant (koff)” value amounted to 0.0001915 s⁻¹.
